Experimental data: the supplement of paper PMC9428881
± gives the standard error.

Test: background-corrected fluorescence of 3'-dye-labeled ssDNA relative to brightest sequence (3'-GCGCG) (fraction); higher = brighter dye fluorescence (less quenching)
Summary of the method: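 Single-stranded DNA was built on glass slides by light-directed phosphoramidite synthesis, ending in a 3' Cy3 or Cy5 dye beside each of 1024 permuted pentamers. Arrays were washed in acetonitrile for 2 h at r.t., then scanned at 532 or 635 nm before and after overnight ethylenediamine/ethanol deprotection. Each value averages 10 features per array and at least 3 syntheses. Fluorescence, corrected by subtracting unlabeled-oligo background, is scaled to the brightest sequence.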

Row | Sequence | background-corrected fluorescence (dye: Cy3 (3' terminal)) | background-corrected fluorescence (dye: Cy5 (3' terminal))
1 | TTTTTTGCTGATGCGCATCATTTTTTTTTTTTTTTACATG [GTACA] | 0.519 ± 0.03 | 0.409 ± 0.023
2 | TTTTTTGCTGCTGCTCATCATTTTTTTTTTTTTTTAAAGG [GGAAA] | 0.646 ± 0.026 | 0.502 ± 0.032
3 | TTTTTTGATGAGCATGATGATTTTTTTTTTTTTTTCCTCC | 0.342 ± 0.03 | 0.273 ± 0.021
4 | TTTTTTCATGATCATCATGATTTTTTTTTTTTTTTGCGGC [CGGCG] | 0.658 ± 0.028 | 0.506 ± 0.029
5 | TTTTTTGCTCAGCATCATGATTTTTTTTTTTTTTTAGTGC [CGTGA] | 0.518 ± 0.047 | 0.405 ± 0.024
6 | TTTTTTGATGCTGCTGATGATTTTTTTTTTTTTTTCAACC [CCAAC] | 0.377 ± 0.027 | 0.265 ± 0.023
7 | TTTTTTGATGATGCTGATGATTTTTTTTTTTTTTTCCACC | 0.378 ± 0.0043 | 0.275 ± 0.026
8 | TTTTTTGATGATGATCAGCATTTTTTTTTTTTTTTCCCGT [TGCCC] | 0.585 ± 0.034 | 0.48 ± 0.021
9 | TTTTTTCATCATGCTGCTGATTTTTTTTTTTTTTTGGAAC [CAAGG] | 0.463 ± 0.028 | 0.352 ± 0.019
10 | TTTTTTGCTGATCATCATGCTTTTTTTTTTTTTTTACGGA [AGGCA] | 0.683 ± 0.03 | 0.588 ± 0.029
11 | TTTTTTGCTGATGCTGAGCATTTTTTTTTTTTTTTACACT [TCACA] | 0.51 ± 0.018 | 0.35 ± 0.033
12 | TTTTTGCATCAGCATCATGCTTTTTTTTTTTTTTTTGTGA [AGTGT] | 0.68 ± 0.026 | 0.564 ± 0.039
13 | TTTTTTGCTCATGATCAGCATTTTTTTTTTTTTTTAGCGT [TGCGA] | 0.679 ± 0.022 | 0.52 ± 0.023
14 | TTTTTTGCTGCTGCTCATGATTTTTTTTTTTTTTTAAAGC [CGAAA] | 0.538 ± 0.018 | 0.426 ± 0.021
15 | TTTTTTGATGATGCGCATGCTTTTTTTTTTTTTTTCCATA [ATACC] | 0.488 ± 0.015 | 0.38 ± 0.033
16 | TTTTTTCATGCGCATGATGCTTTTTTTTTTTTTTTGATCA [ACTAG] | 0.535 ± 0.034 | 0.43 ± 0.022
17 | TTTTTGCATCATGATGCGCATTTTTTTTTTTTTTTTGCAT [TACGT] | 0.529 ± 0.02 | 0.394 ± 0.02

Row | Sequence | background-corrected fluorescence (dye: Cy3 (3' terminal)) | background-corrected fluorescence (dye: Cy5 (3' terminal))
18 | TTTTTTGAGCATGCGCATCATTTTTTTTTTTTTTTCTATG [GTATC] | 0.564 ± 0.015 | 0.383 ± 0.029
19 | TTTTTTGCGCATGCGCATGCTTTTTTTTTTTTTTTATATA | 0.537 ± 0.034 | 0.431 ± 0.042
20 | TTTTTTCATCATCATGATCATTTTTTTTTTTTTTTGGGCG [GCGGG] | 0.69 ± 0.031 | 0.521 ± 0.062
21 | TTTTTTGATCAGCATGATGATTTTTTTTTTTTTTTCGTCC [CCTGC] | 0.4 ± 0.0041 | 0.315 ± 0.021
22 | TTTTTTGCGCATCATGATGCTTTTTTTTTTTTTTTATGCA [ACGTA] | 0.527 ± 0.024 | 0.46 ± 0.036
23 | TTTTTTGATGATCATGCTGCTTTTTTTTTTTTTTTCCGAA [AAGCC] | 0.647 ± 0.047 | 0.49 ± 0.031
24 | TTTTTTGATGCTGATGCTCATTTTTTTTTTTTTTTCACAG [GACAC] | 0.481 ± 0.031 | 0.384 ± 0.019
25 | TTTTTTCATCAGCATCATGATTTTTTTTTTTTTTTGGTGC [CGTGG] | 0.522 ± 0.0057 | 0.419 ± 0.027
26 | TTTTTTGATCATCATCATGCTTTTTTTTTTTTTTTCGGGA [AGGGC] | 0.7 ± 0.0078 | 0.715 ± 0.052
27 | TTTTTGCAGCATCATGATGATTTTTTTTTTTTTTTTTGCC [CCGTT] | 0.41 ± 0.015 | 0.322 ± 0.059
28 | TTTTTTCAGCATGCTGCGCATTTTTTTTTTTTTTTGTAAT [TAATG] | 0.531 ± 0.019 | 0.435 ± 0.043
29 | TTTTTTGATCATCAGCAGCATTTTTTTTTTTTTTTCGGTT [TTGGC] | 0.545 ± 0.0074 | 0.427 ± 0.024
30 | TTTTTTGCTGCTGATGATGATTTTTTTTTTTTTTTAACCC [CCCAA] | 0.392 ± 0.021 | 0.294 ± 0.016
31 | TTTTTTGAGCAGCAGCATGCTTTTTTTTTTTTTTTCTTTA [ATTTC] | 0.48 ± 0.016 | 0.4 ± 0.037
32 | TTTTTTCATGCTGATGCTGCTTTTTTTTTTTTTTTGACAA [AACAG] | 0.537 ± 0.032 | 0.415 ± 0.022
33 | TTTTTTGCTCATGCGCATCATTTTTTTTTTTTTTTAGATG [GTAGA] | 0.552 ± 0.027 | 0.439 ± 0.018
34 | TTTTTTGAGCAGCATGATGATTTTTTTTTTTTTTTCTTCC [CCTTC] | 0.345 ± 0.016 | 0.229 ± 0.015
